{"source": "patent US10934529B2", "about": "“Three dimensional hydrogels for culturing organoids” (Ecole Polytechnique Fèdèrale de Lausanne, priority 2015, dated 2021)", "molecules": {"B1": {"name": "Wnt3a: recombinant Wnt3a (protein, UniProt P56704 19-352, looked up)", "Protein Wnt-3a": "SYPIWWSLAVGPQYSSLGSQPILCASIPGLVPKQLRFCRNYVEIMPSVAEGIKIGIQECQHQFRGRRWNCTTVHDSLAIFGPVLDKATRESAFVHAIASAGVAFAVTRSCAEGTAAICGCSSRHQGSPGKGWKWGGCSEDIEFGGMVSREFADARENRPDARSAMNRHNNEAGRQAIASHMHLKCKCHGLSGSCEVKTCWWSQPDFRAIGDFLKDKYDSASEMVVEKHRESRGWVETLRPRYTYFKVPTERDLVYYEASPNFCEPNPETGSFGTRDRTCNVSSHGIDGCDLLCCGRGHNARAERRREKCRCVFHWCCYVSCQECTRVYDVHTCK"}}, "tested_on": "intestinal stem cells (ISCs)", "assay": "ISC colony formation efficiency / ISC expansion in hydrogels", "format": "cell-based, mouse", "settings": "PEG-RGD, Wnt3a-containing medium", "method": "Freshly isolated crypts or single cells from dissociated colonies were added to the Matrigel or hydrogels precursor solution and cast in 20-μL droplets at the bottom of wells in 24-well plate. […] For single cell culture, thiazovivin (2.5 μM; Stemgent) and Jagged-1 peptide ([…]; Anaspec) was included in the medium during the first two days. Broad spectrum protease inhibitor, GM6001, was added to the medium while embedding the cells in PEG hydrogels. Every two days the growth factors were replenished and the full medium was changed.\nTo quantify the colony formation efficiency of single embedded ISCs, phase contrast z-stacks spanning the entire thickness of the cell-laden Matrigel or PEG gels were collected (Zeiss Axio Observer Z1) at 5 different locations within the gels. The Cell Counter plugin in ImageJ (NIH) was used to quantify the fraction of cells which had formed colonies at day 4 after seeding. To assess the viability of intestinal tissue fragments embedded in PEG, phase contrast images of the entire gel were collected. The fraction of viable tissues was estimated based upon the epithelial morphology: tissues that featured an epithelial monolayer surrounding a central lumen after 24 h of embedding were deemed viable.", "note": "Entries after “also recorded” stand apart in the source; their conditions may differ.", "data": [{"molecule": "B1", "values": [{"measurement": "ISC culture with Wnt3a instead of CHIR99021 and valproic acid", "value": "successfully cultured; also recorded: can successfully replace CHIR99021 and VPA"}]}]}
